Values of other authors, collected in article PMC3001128.
pKd: −log10 of the molar value. Each block holds one substance with its values, some of them ahead of it.

Columns and labels:
CD48 IgV = CD48 IgV (UniProt P18181)
CD58 IgV (Homo sapiens) = CD58 IgV (Homo sapiens) (UniProt P19256)
GITR (Homo sapiens) = GITR (Homo sapiens) (UniProt Q9Y5U5)
NTB-A (Homo sapiens) = NTB-A (Homo sapiens) (UniProt Q96DU3)
[1] = target: SLAM (CD150) (Homo sapiens) (UniProt Q13291)

Sequence of UniProt Q9Y5U5 (Q9Y5U5 26-241): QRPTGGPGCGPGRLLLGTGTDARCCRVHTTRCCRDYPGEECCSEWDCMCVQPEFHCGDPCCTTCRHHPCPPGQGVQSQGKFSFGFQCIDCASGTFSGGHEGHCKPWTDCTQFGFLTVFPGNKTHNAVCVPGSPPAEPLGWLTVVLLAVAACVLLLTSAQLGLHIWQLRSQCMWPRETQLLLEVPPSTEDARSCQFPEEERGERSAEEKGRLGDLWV
Sequence of UniProt P19256 (P19256 30-121): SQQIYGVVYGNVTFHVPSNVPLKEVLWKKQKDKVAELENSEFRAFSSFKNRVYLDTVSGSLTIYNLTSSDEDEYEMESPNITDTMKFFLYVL
Sequence of UniProt P18181 (P18181 29-125): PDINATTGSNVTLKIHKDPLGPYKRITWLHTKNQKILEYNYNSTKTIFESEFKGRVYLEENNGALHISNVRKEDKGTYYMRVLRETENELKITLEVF

Substance: 2B4 IgV (from UniProt Q07763)
pKd (CD48 IgV): 5.40

Substance: GITRL (from UniProt Q9UNG2)
pKd (GITR (Homo sapiens)): 6.25

Substance: SLAM (CD150) (from UniProt Q13291)
pKd [1]: 3.70

Results, then the substance that gave them:

pKd (CD58 IgV (Homo sapiens)): 5.00
Substance: CD2 IgV (from UniProt P06729)

pKd (NTB-A (Homo sapiens)): 5.70
Substance: NTB-A (from UniProt Q96DU3)
